Data set [1] concerns MORC4 ATPase domain (Homo sapiens). In words: fluorescence polarization. To be noted: EMSA DNA: 20 mM Tris-HCl pH 7.5, 150 mM NaCl, 2.5 mM MgCl2, 2 mM DTT, on ice; EMSA NCP: 25 mM Tris-HCl pH 7.5, 75 mM NaCl, 0.005% Tween 20, 10% glycerol, 4 C ….
In data set [2] the test system is MORC4 ATPaseCW (Homo sapiens). In words: fluorescence polarization. As to conditions: EMSA DNA: 20 mM Tris-HCl pH 7.5, 150 mM NaCl, 2.5 mM MgCl2, 2 mM DTT, on ice; EMSA NCP: 25 mM Tris-HCl pH 7.5, 75 mM NaCl, 0.005% Tween 20, 10% glycerol, 4 C …. Background: In fluorescence polarisation assays a small probe gives low polarisation when free and higher when bound to something large.

In data set [3] the test system is LexA. In words: FRET. To be noted: EMSA DNA: 20 mM Tris-HCl pH 7.5, 150 mM NaCl, 2.5 mM MgCl2, 2 mM DTT, on ice, EMSA NCP: 25 mM Tris-HCl pH 7.5, 75 mM NaCl, 0.005% Tween 20, 10% glycerol, 4 C ….
Data set [4] has as its system Gal4 DNA-binding domain. In words: FRET. As to conditions: EMSA DNA: 20 mM Tris-HCl pH 7.5, 150 mM NaCl, 2.5 mM MgCl2, 2 mM DTT, on ice, EMSA NCP: 25 mM Tris-HCl pH 7.5, 75 mM NaCl, 0.005% Tween 20, 10% glycerol, 4 C …. (In general: Mobility shift assays separate free from complexed probe on a gel.)

From article PMC7596504, “Molecular mechanism of the MORC4 ATPase activation” (Nature Communications, 2020) come the findings set out here.

Take NCP147: the values for the K half in data set [1] and in data set [2] were 2300 nM and 400 nM, respectively.

NCP147 LexA: the values for the K half in data set [3] (1 uM MORC4 ATPaseCW) and in data set [3] (no MORC4) were 2400 nM and 900 nM, respectively.

In the case of NCP207, the K half in data set [1] is 500 nM; in data set [2], 200 nM.

With NCP252 Gal4, the K half is 20 nM in data set [4] (no MORC4); 100 nM in data set [4] (saturating MORC4 ATPaseCW, 0.3 mM ATP); 40 nM in data set [4] (saturating MORC4 ATPaseCW, no ATP).
